Measured values: article PMC5760085

Tests used:
[1] = target: Aleuria aurantia lectin (Aleuria aurantia) (UniProt P18891); experiment: BLI; biotinylated AAL (1.5 μg/mL) loaded on High Precision Streptavidin (SAX) biosensors, mucin in solution; Octet RED96, kinetics mode, 25°C, 1000 rpm, sample diluent
[2] = target: Aleuria aurantia lectin (Aleuria aurantia) (UniProt P18891); experiment: BLI; competition with L-Fuc: AAL-loaded biosensor blocked with 0.1 M L-Fuc in the second baseline step, and the mucin sample incubated with L-Fuc (BSM 1 μM to 0.1 M; MUC5B 1 μM to 100 μM)

UniProt P18891, sequence (P18891 whole entry): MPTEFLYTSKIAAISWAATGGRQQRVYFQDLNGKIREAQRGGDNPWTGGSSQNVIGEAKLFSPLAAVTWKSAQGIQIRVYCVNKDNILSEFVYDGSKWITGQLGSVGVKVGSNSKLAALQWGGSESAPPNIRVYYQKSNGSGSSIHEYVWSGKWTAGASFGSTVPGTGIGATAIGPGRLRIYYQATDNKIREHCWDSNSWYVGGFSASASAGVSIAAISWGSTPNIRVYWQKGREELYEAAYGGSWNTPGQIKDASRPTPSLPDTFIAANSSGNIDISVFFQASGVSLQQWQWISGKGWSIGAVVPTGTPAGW

Bovine Submaxillary Mucin (natural protein)
fold lower binding response than MUC5B [1]: 10 times lower
fold lower association with 100 μM Fuc than without Fuc [2]: 5 times lower
